To fix the notation:
B1: MEF2-activating motif and SAP domain-containing transcriptional regulator, residues 170 to 204; numbered along this chain, Q6ZN01 (parent)
chain: LKLEELTVSELRQQLRLRGLPVSGTKSMLLERMRG

± gives the uncertainty stated by the source.

Variants of B1 are the subject of this series. The series can be described thus: abundance fitness (aPCA) (normalised: wild type 0, dead -1); higher = more abundant; growth selection in yeast, the domain comes from the species named. As to conditions: Homo sapiens.
Consider G35R, for which the abundance fitness was -0.436 ± 0.11.

For the variant G35L, the abundance fitness is -0.074 ± 0.081.

Regarding G35A, the abundance fitness was -0.117 ± 0.13.

With G35S, the abundance fitness was -0.262 ± 0.36.

For G35F, the abundance fitness is -0.295 ± 0.11.

In the case of G35N, the abundance fitness is -0.161 ± 0.28.

As to G35W, the abundance fitness is -0.416 ± 0.13.

With R34Y, the abundance fitness was -0.316 ± 0.08.

R34W: the abundance fitness is -0.556 ± 0.071.

For the origin of these results see the Human Domainome abundance scans (Beltran et al. 2025).
